Where two headings read alike, the source gives them in different places.

The results in this text go back to PMC5013986 (RNA Biology, 2016).

The labels stand for the following.
B2: Strep-tagged GapA lacking SR1P (enzyme, B. subtilis, UniProt P09124 1-335, looked up)
chain: MAVKVGINGFGRIGRNVFRAALNNPEVEVVAVNDLTDANMLAHLLQYDSVHGKLDAEVSVDGNNLVVNGKTIEVSAERDPAKLSWGKQGVEIVVESTGFFTKRADAAKHLEAGAKKVIISAPANEEDITIVMGVNEDKYDAANHDVISNASCTTNCLAPFAKVLNDKFGIKRGMMTTVHSYTNDQQILDLPHKDYRRARAAAENIIPTSTGAAKAVSLVLPELKGKLNGGAMRVPTPNVSLVDLVAELNQEVTAEEVNAALKEAAEGDLKGILGYSEEPLVSGDYNGNKNSSTIDALSTMVMEGSMVKVISWYDNESGYSNRVVDLAAYIAKKGL
B4: GapA_(Strep)/SR1P (Strep-tagged GapA carrying SR1P) (complex)
chain 1: MAVKVGINGFGRIGRNVFRAALNNPEVEVVAVNDLTDANMLAHLLQYDSVHGKLDAEVSVDGNNLVVNGKTIEVSAERDPAKLSWGKQGVEIVVESTGFFTKRADAAKHLEAGAKKVIISAPANEEDITIVMGVNEDKYDAANHDVISNASCTTNCLAPFAKVLNDKFGIKRGMMTTVHSYTNDQQILDLPHKDYRRARAAAENIIPTSTGAAKAVSLVLPELKGKLNGGAMRVPTPNVSLVDLVAELNQEVTAEEVNAALKEAAEGDLKGILGYSEEPLVSGDYNGNKNSSTIDALSTMVMEGSMVKVISWYDNESGYSNRVVDLAAYIAKKGL
chain 2: MGTIVCQDCNEAIHYFEDEKVTTLYGTCCGQCQCPVDEE

Experiment [1] addresses B4. Description: pull-down.
In experiment [2] the target is B2. Description: pull-down.
Experiment [3] concerns the target T1, His-tagged RNase J1 (B. subtilis, UniProt Q45493 1-555). Description: far-Western, overlay or dot blot.
Experiment [4] deals with T1, His-tagged RNase J1. Description: far-Western, overlay or dot blot. This is another data set of the same source.

T1 sequence (Q45493 whole entry): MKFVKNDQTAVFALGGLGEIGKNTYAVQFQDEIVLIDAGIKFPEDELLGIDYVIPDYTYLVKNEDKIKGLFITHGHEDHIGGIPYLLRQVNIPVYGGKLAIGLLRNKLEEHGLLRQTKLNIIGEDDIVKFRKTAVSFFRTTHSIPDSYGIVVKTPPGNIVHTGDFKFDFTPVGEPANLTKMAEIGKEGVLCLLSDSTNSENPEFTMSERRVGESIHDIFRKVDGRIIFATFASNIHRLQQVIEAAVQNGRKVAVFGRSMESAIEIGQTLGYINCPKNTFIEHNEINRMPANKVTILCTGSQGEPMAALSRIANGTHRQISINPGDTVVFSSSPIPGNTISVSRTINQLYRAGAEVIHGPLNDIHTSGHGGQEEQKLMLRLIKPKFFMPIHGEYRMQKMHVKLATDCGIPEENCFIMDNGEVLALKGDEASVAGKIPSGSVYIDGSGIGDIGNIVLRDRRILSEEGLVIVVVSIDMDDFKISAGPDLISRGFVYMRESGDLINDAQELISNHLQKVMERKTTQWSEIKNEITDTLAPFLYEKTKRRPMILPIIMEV

B1: RNase J1 (enzyme)
chain: not shown
As for B1, the “GapA/SR1P-RNase J1 ratio” value in experiment [1] is 80 GapA/SR1P per RNase J1. Also, in experiment [2], the “GapA-RNase J1 ratio” value is roughly 200 GapA per RNase J1.
As to B2, the binding result in experiment [3] is on record as “binds”.

B3: untagged GapA (enzyme, UniProt P09124 1-335, looked up)
chain: MAVKVGINGFGRIGRNVFRAALNNPEVEVVAVNDLTDANMLAHLLQYDSVHGKLDAEVSVDGNNLVVNGKTIEVSAERDPAKLSWGKQGVEIVVESTGFFTKRADAAKHLEAGAKKVIISAPANEEDITIVMGVNEDKYDAANHDVISNASCTTNCLAPFAKVLNDKFGIKRGMMTTVHSYTNDQQILDLPHKDYRRARAAAENIIPTSTGAAKAVSLVLPELKGKLNGGAMRVPTPNVSLVDLVAELNQEVTAEEVNAALKEAAEGDLKGILGYSEEPLVSGDYNGNKNSSTIDALSTMVMEGSMVKVISWYDNESGYSNRVVDLAAYIAKKGL
For B3, the binding result in experiment [3] is listed as “binds”.
With B4, the binding result in experiment [4] is “binds”.
